Reference: PMC9859758

Columns and labels:
[1] = target: His-tagged NcKar9N-β^− (Arg233Ala/Ile237Ala) (Naumovozyma castellii); assay: SEC-MALS; 20 mM Tris-HCl pH 7.5, 50 mM NaCl, 1 mM dithiothreitol; S-200 10/300 column; 30 μl of 200 μM protein injected
[2] = target: His-tagged NcKar9N-β^− (Arg233Ala/Ile237Ala) (Naumovozyma castellii); assay: SEC-MALS; 20 mM Tris-HCl pH 7.5, 150 mM NaCl, 1 mM dithiothreitol; S-200 10/300 column; 30 μl of 200 μM protein injected
[3] = target: His-tagged Naumovozyma castellii Kar9 N-terminal domain (NcKar9N, residues 1-410), wild type (Naumovozyma castellii); assay: as above
[4] = target: His-tagged NcKar9N-γ^− (Tyr363Ala/Arg364Ala) (Naumovozyma castellii); assay: SEC-MALS; 20 mM Tris-HCl pH 7.5, 50 mM NaCl, 1 mM dithiothreitol; S-200 10/300 column; 30 μl of 200 μM protein injected

“His-tagged NcKar9N-β^− (Arg233Ala/Ile237Ala) (domain or fragment)” showed a stoichiometry N [1] of 2 and a stoichiometry N [2] of 2.

In the case of “His-tagged Naumovozyma castellii Kar9 N-terminal domain (NcKar9N, residues 1-410), wild type (domain or fragment)”, the stoichiometry N [3] is reported as 2.

For “His-tagged NcKar9N-γ^− (Tyr363Ala/Arg364Ala) (domain or fragment)”, the stoichiometry N [4] was less than 4.
